{"source": "paper PMC7116351", "about": "(Protein expression and purification, 2019)", "proteins": {"B1": {"name": "MgtE Mg2+ channel from Thermus thermophilus (wild type) (natural protein, UniProt Q5SMG8 1-450, looked up)", "chain": "MEEKLAVSLQEALQEGDTRALREVLEEIHPQDLLALWDELKGEHRYVVLTLLPKAKAAEVLSHLSPEEQAEYLKTLPPWRLREILEELSLDDLADALQAVRKEDPAYFQRLKDLLDPRTRAEVEALARYEEDEAGGLMTPEYVAVREGMTVEEVLRFLRRAAPDAETIYYIYVVDEKGRLKGVLSLRDLIVADPRTRVAEIMNPKVVYVRTDTDQEEVARLMADYDFTVLPVVDEEGRLVGIVTVDDVLDVLEAEATEDIHKLGAVDVPDLVYSEAGPVALWLARVRWLVILILTGMVTSSILQGFESVLEAVTALAFYVPVLLGTGGNTGNQSATLIIRALATRDLDLRDWRRVFLKEMGVGLLLGLTLSFLLVGKVYWDGHPLLLPVVGVSLVLIVFFANLVGAMLPFLLRRLGVDPALVSNPLVATLSDVTGLLIYLSVARLLLEAV"}}, "target": "the molecule itself", "assay": "SEC", "data": [{"protein": "B1", "values": [{"measurement": "stoichiometry N", "value": 2}]}]}
